Results as given in patent US20250002565A1 (published 2025).
No end group written: not given here.

T1: 15-mer peptide LGIWGCSGKLICTTT (SEQ ID NO:1) (HIV, not fully specified; cysteine pairing not given here)
T1 construct: also called U1731DB060-1; U173DB060-1
T1 peptide: LGIWGCSGKLICTTT


Tests used:
[1] = biological target: T1, 15-mer peptide LGIWGCSGKLICTTT (SEQ ID …); assay: indirect ELISA; 15-mer peptide coated 1 ug/ml in DTT; antibody at 12 ng/ml
Procedure: (§1) In a first study, an ELISA was prepared in which the linear (reduced) form of the 15-mer peptide […] (SEQ ID NO:1) was coated onto a solid support and contacted with various concentrations of peptides #1, #2, #3, #4, #5, #6, #7, #8, #9Q, #10Q, and #11Q. A mouse, anti-human IgG Fc-HRP at 0.2 μg/ml was used as a secondary antibody.

[2] = biological target: T1, 15-mer peptide LGIWGCSGKLICTTT (SEQ ID …); assay: indirect ELISA; 15-mer peptide coated 1 ug/ml in DTT; antibody at 37 ng/ml
Procedure: as §1

[3] = biological target: T1, 15-mer peptide LGIWGCSGKLICTTT (SEQ ID …); assay: indirect ELISA; 15-mer peptide coated 1 ug/ml in DTT; antibody at 111 ng/ml
Procedure: as §1

[4] = biological target: T1, 15-mer peptide LGIWGCSGKLICTTT (SEQ ID …); assay: indirect ELISA; 15-mer peptide coated 1 ug/ml in DTT; antibody at 333 ng/ml
Procedure: as §1

[5] = biological target: T1, 15-mer peptide LGIWGCSGKLICTTT (SEQ ID …); assay: indirect ELISA; 15-mer peptide coated 1 ug/ml in DTT; antibody at 1000 ng/ml
Procedure: as §1

[6] = biological target: T1, 15-mer peptide LGIWGCSGKLICTTT (SEQ ID …); assay: indirect ELISA; 15-mer peptide coated 1 ug/ml in DTT; negative control well of this row (not explained)
Procedure: as §1

[7] = biological target: gp41 of HIV isolate SF-162 (clade B clinical isolate) (HIV isolate SF-162, clade B); assay: cell-based or functional assay
[8] = biological target: T2, recombinant HIV gp41 (HIV); assay: indirect ELISA; gp41 coated 2 µg/ml in PBS
T2 construct: also called U7267DC080-1; U1916DG190-1
Procedure: (§2) Variants #9V, #10V, and #11V were prepared with substitutions in the heavy chain. These variants comprised amino acids sequences nearly identical to #9Q, #10Q, and #11Q, respectively, with the only distinction being a substitution of glutamine (Q) for valine (V) at the 5 position of the heavy chain. Exemplary peptides #10Q and #10V were tested in indirect ELISA assays to determine the EC50 values for binding to the epitope having the amino acid sequence of SEQ ID NO:1 and HIV gp41. The results of these studies are shown in Tables 6 and 7 below, as well as FIGS. 2 and 3. Target proteins U7267DC080-1 and U173DB060-1 correspond to recombinant gp41 and the 15-mer peptide […] (SEQ ID NO:1), respectively.

[9] = biological target: T3, gp41 on the membrane of HIV-infected CD4+ cells (HIV); assay: FACS on HIV-infected CD4+ cells, absence of sCD4
T3 construct: whole, on cells; also called CD4 cell-surface gp41
Procedure: (§3) For the FACS binding studies, the CD4+ cells that were infected with HIV expressed HIV viral envelope proteins on the cell membrane surfaces, e.g., gp160=gp41 and gp 120. Binding of proteins #7, #10Q, and #10V was tested in both presence and absence of soluble CD4 (sCD4).

[10] = biological target: T3, gp41 on the membrane of HIV-infected …; assay: FACS on HIV-infected CD4+ cells, presence of sCD4
Procedure: as §3

[11] = biological target: T2, recombinant HIV gp41; assay: GenScript binding assay, EC50 vs rgp41 (summary table; per first reading the same value as in Tables 6-8)
[12] = biological target: T2, recombinant HIV gp41; assay: indirect ELISA; gp41 coated 2 µg/ml in DTT (by the table's columns; paragraph 121 calls it the value against SEQ ID NO:1)
Procedure: as §2

| Binder | ELISA OD [1] [OD] | ELISA OD [2] [OD] | ELISA OD [3] [OD] | ELISA OD [4] [OD] | ELISA OD [5] [OD] | ELISA OD (Neg. Cont.) [6] [OD] | IC value vs SF 162 (µg/ml) in PBMC based in vitro assays [7] [µg/mL] | EC50 [8] [µg/mL] | Fluorescent (FACS) counts [9] [counts] | Fluorescent (FACS) counts [10] [counts] | EC50 [11] [µg/mL] | EC50 [12] [µg/mL] |
| --- | --- | --- | --- | --- | --- | --- | --- | --- | --- | --- | --- | --- |
| HIV-binding peptide #1 (antibody, human IgG1, kappa, V domains shown, Recombinant, fully human immunoglobulin; also called U1205DB020-1) VH: QVQLQESGGGVVQPGRSLRLSCAASGFTFSSYAIHWVRQAPGKGLEWVAVISYDGSNRYYADSVKGRFTISRDNSKNTLYLQMNSLRPEDTAVYYCARDRFSAVASTPTYHNYFYMDVWGKGTTVTVSS VL: DIQMTQSPSSLSASVGDRVTITCQASQDVNNYLAWYQQKPGQAPRLLIYDASNLETGVPSRFSGSGSGTDFTLTISSLQPEDLATYYCQQYDNTPYTFGQGTKLEIKR | 0.08 | 0.098 | 0.076 | 0.096 | 0.079 | 0.096 | – | – | – | – | – | – |
| HIV-binding peptide #9Q (antibody, human IgG1, V domains shown) VH: QVQLQESGGGVVQPGRSLRLSCAASGFTFSSYAIHWVRQAPGKGLEWVAVISYDGSNRYYADSVKGRFTISRDNSKNTLYLQMNSLRPEDTAVYYCARDRFSAVASTPTYHNYFYMDVWGKGTTVTVSS | 0.111 | 0.122 | 0.171 | 0.322 | 0.745 | 0.105 | – | – | – | – | – | – |
| HIV-binding peptide #10Q (antibody, V domains shown, also called antibody#10-5Q; U1205DB020-10) VH: QVQLQESGGGVVQPGRSLRLSCAASGFTFSSYAIHWVRQAPGKGLEWVAVISYDGSNRYYADSVKGRFTISRDNSKNTLYLQMNSLRPEDTAVYYCARDRFSAVASTPTYHNYFYMDVWGKGTTVTVSS | 0.14 | 0.209 | 0.377 | 0.863 | 1.71 | 0.084 | 0.05 | 1.78 | 120000 | 110000 | 1.78 | 5.54 |
| HIV-binding peptide #7 (antibody, human IgG1, kappa, V domains shown, also called U1205DB020-7) VH: QVQLQESGGGVVQPGRSLRLSCAASGFTFSSYAIHWVRQAPGKGLEWVAVISYDGSNRYYADSVKGRFTISRDNSKNTLYLQMNSLRPEDTAVYYCARDRFSAVASTPTYHNYFYMDVWGKGTTVTVSS VL: DIQMTQSPSSLSASVGDRVTITCQASQDVSNYLAWYQQKPGQAPRLLIYDASNLETGVPSRFSGSGSGTDFTLTISSLQPEDLATYYCQQYDNLPYTFGQGTKLEIKR | 0.096 | 0.098 | 0.084 | 0.092 | 0.09 | 0.088 | 0.5 | – | 25900 | 25000 | 107 | – |
| HIV-binding peptide #5 (antibody, human IgG1, kappa, V domains shown, Recombinant, fully human immunoglobulin; also called U1205DB020-5) VH: QVQLQESGGGVVQPGRSLRLSCAASGFTFSSYAIHWVRQAPGKGLEWVAVISYDGSNRYYADSVKGRFTISRDNSKNTLYLQMNSLRPEDTAVYYCARDRFSAVASTPTYHNYFYMDVWGKGTTVTVSS VL: DIQMTQSPSSLSASVGDRVTITCQASQDVSNYLAWYQQKPGQAPRLLIYDASNLETGVPSRFSGSGSGTDFTLTISSLQPEDLATYYCQQYDNTPYTFGQGTKLEIKR | 0.082 | 0.081 | 0.071 | 0.086 | 0.081 | 0.078 | – | – | – | – | – | – |
| HIV-binding peptide #8 (antibody, human IgG1, kappa, V domains shown, Recombinant, fully human immunoglobulin; also called U1205DB020-8) VH: QVQLQESGGGVVQPGRSLRLSCAASGFTFSSYAIHWVRQAPGKGLEWVAVISYDGSNRYYADSVKGRFTISRDNSKNTLYLQMNSLRPEDTAVYYCARDRFSAVASTPTYHNYFYMDVWGKGTTVTVSS VL: DIQMTQSPSSLSASVGDRVTITCQASQDISNYLAWYQQKPGQAPRLLIYDASNLETGVPSRFSGSGSGTDFTLTISSLQPEDLATYYCQQYDNLPYTFGQGTKLEIKR | 0.094 | 0.089 | 0.1 | 0.073 | 0.076 | 0.088 | – | – | – | – | – | – |
